# T1: human B7-H3 (4Ig-B7-H3 variant) (Homo sapiens, UniProt Q5ZPR3)
# T1 construct: His tag (6xHis) (C)
# T1 sequence (Q5ZPR3 with tags, fused parts or gaps): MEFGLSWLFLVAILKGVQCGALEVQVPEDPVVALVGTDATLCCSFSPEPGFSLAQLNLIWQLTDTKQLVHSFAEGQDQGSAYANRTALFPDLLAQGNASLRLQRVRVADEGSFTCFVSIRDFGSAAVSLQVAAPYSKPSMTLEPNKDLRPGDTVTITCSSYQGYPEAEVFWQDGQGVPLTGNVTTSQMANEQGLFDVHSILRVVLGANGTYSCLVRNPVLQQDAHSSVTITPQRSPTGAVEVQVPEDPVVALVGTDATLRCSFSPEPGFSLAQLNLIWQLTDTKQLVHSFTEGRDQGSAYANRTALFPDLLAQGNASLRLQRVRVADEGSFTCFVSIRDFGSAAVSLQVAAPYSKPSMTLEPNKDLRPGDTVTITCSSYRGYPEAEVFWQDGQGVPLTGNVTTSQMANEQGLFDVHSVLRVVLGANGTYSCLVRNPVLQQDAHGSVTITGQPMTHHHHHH
# B1: Ab17: mouse hybridoma derived anti-B7-H3 monoclonal antibodies (mAbs) (antibody, V domains shown)
# VH: EVKLVESGGGLVQPGGSLKLSCAASGFTFSSYIMSWVRQTPEKRLEWVASIVSSNITYYPDSMKGRFTISRDNARNILYLQMSSLKSEDTAMYYCARSGTRAWFAYWGQGTLVTVSA
# VL: DIVLTQSPASLAVSLGQRATISCRASKSVSTSAYSYMHWYQQKPGQPPKLLIYLASNLESGVPARFSGSGSGTDFTLNIHPVEEEDAATYYCQHSRELPYTFGGGTKLEIK
# B2: Ab7: mouse hybridoma derived anti-B7-H3 monoclonal antibodies (mAbs) (antibody, V domains shown)
# VH: EVQLVESGENLVKPGGSLKLSCAASGFSFRGYGMSWVRQTPDKRLEWVAAISTGGNYTYYPDSVQGRFTISRDNANNTLYLQMSSLKSEDTAMYYCARRGGNYAGFAYWGQGTLVTVSA
# VL: DIQMTQSPASLSVSVGETVTITCRPSENIYSNLAWYQQKQGKSPQLLVYAATNLADGVPSRFSGSGSGTQYSLKINSLQSEDFGTYYCQHFWGTPFTFGSGTKLEIK
# B3: Ab6: mouse hybridoma derived anti-B7-H3 monoclonal antibodies (mAbs) (antibody, V domains shown)
# VH: QVQLQQSGAELMKPGASVKISCKATGYTFSRYWIEWVKQRPGHGLEWIGEILPGSGSTNYNEKFKGKATFTADTSSNTAYMQVSSLTSEDSAVHYCARRGYGYVPYALDYWGQGTSVTVSS
# VL: EIQMTQTTSSLSASLGDRVTISCRASQDISNSLNWYQQKPDGTVNLLIYYTSRLYSGVPSRFSGSGSGTDYSLTISNLEQEDIATYFCQQGNTLPYTFGGGTKLEIK
# B4: huAb3v4-CZ (conjugate)
# VH: EVQLVQSGAEVKKPGSSVKVSCKASGYTFSSYWMHWVRQAPGQGLEWMGLIHPDSGSTNYNEMFKNRVTITADKSTSTAYMELSSLRSEDTAVYYCARGGRLYFDYWGQGTTVTVSS
# VL: DVVMTQSPLSLPVTPGEPASISCRSSQSLVHSNGDTYLRWYLQKPGQSPQLLIYKVSNRFSGVPDRFSGSGSGTDFTLKISRVEAEDVGVYYCSQSTHVPYTFGGGTKVEIK
# modifications: drug conjugate CZ; Synthetic huAb3VH.1, huAb3v1, and huAb3v4 VH amino acid sequence; Synthetic huAb3VL.1b, huAb3v4, huAb3v5, and huAb3v6 VL amino acid sequence
# What was measured:
# [1] = molecular target: T1, human B7-H3 (4Ig-B7-H3 variant); assay: Biacore T200 SPR binding kinetics, mAb capture, soluble ECD of human B7-H3; conditions: 1:1 binding model
# Experimental: (§1) The binding affinity of the purified anti-B7-H3 monoclonal antibodies was determined by surface […]. […] The binding kinetics were derived from SPR measurements using a Biacore T200 instrument and a mAb capture approach (as described in the materials and methods below).
# (§2) Biacore T200 SPR instruments were used to measure the binding kinetics of human B7-H3 (4Ig-B7-H3 variant) (analyte) binding to various mAbs (ligands). The assay format was Fc-based capture via immobilized anti-mouse (Fc) (Pierce 31170) or immobilized anti-human (Fc) (Pierce 31125). A standard amine coupling protocol was employed to immobilize the capture reagents via primary amines to the carboxy-methyl (CM) dextran surface of CM5 sensorchips (Biacore); capture antibodies were coupled to a level of approximately 5000RU. For binding kinetic measurements the assay buffer was HBS-EP+ (Biacore): 10 mM Hepes, pH7.4, 150 mM NaCl, 3 mM EDTA, 0.05% polysorbate 20. During the assay, all measurements were referenced against the capture surface alone. Each assay cycle consisted of the following steps: 1) Capture of ligand to approximately 50RU; 2) Analyte injection over both reference and test surface, 240 μL at 80 μL/min, after which the dissociation was monitored for 900 seconds at 80 μL/min; 3) Regeneration of capture surface with low pH glycine. For kinetic determinations analyte injections were 3-point, 9-fold dilution series of 900 nM, 100 nM and 11.11 nM, buffer only injections were included for secondary referencing. Data were processed and fit to a 1:1 binding model using Biacore T200 Evaluation Software to determine the binding kinetic rate constants, ka (on-rate) and kd (off-rate), and the equilibrium dissociation constant (affinity, KD).
# cyno B7-H3 = assay: Biacore T200 SPR binding kinetics, mAb capture, soluble ECD of cyno B7-H3; parameters: species or system cynomolgus monkey; conditions: 1:1 binding model
# Experimental: [The source words this procedure for another species and reports this species under the same test.] as §1, §2
# [2] = Percentage aggregation of ADCs by size exclusion chromatography (SEC); type: physicochemical; conditions: humanized Ab3-CZ variants, Table 14
# Experimental: The DAR and percentage aggregation of ADCs synthesized were determined by LC-MS and size exclusion chromatography (SEC), respectively.
# Size exclusion chromatography was performed using a Shodex KW802.5 column in 0.2 M potassium phosphate pH 6.2 with 0.25 mM potassium chloride and 15% IPA at a flow rate of 0.75 ml/min. The peak area absorbance at 280 nm was determined for each of the high molecular weight and monomeric eluents by integration of the area under the curve. The % aggregate fraction of the conjugate sample was determined by dividing the peak area absorbance at 280 nm for the high molecular weight eluent by the sum of the peak area absorbances at […] of the high molecular weight and monomeric eluents multiplied by 100%.
# cyno B7-H3, sequence (as listed by the source): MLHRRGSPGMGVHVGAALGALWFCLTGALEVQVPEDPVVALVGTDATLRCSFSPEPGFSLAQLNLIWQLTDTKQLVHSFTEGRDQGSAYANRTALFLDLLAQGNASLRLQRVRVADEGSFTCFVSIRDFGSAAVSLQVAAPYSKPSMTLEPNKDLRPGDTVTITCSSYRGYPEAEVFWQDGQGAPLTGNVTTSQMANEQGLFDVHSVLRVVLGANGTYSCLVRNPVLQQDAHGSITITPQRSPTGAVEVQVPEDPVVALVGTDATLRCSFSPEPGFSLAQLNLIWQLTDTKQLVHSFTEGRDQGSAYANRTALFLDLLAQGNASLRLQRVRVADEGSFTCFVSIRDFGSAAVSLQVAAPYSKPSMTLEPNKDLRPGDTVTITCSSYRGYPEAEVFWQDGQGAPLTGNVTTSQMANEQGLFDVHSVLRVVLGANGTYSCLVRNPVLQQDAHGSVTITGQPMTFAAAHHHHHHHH
Molecule,ka (1/Ms) huB7-H3 [1],kd (1/s) huB7-H3 [1],ka (1/Ms) cynoB7-H3 (cyno B7-H3),kd (1/s) cynoB7-H3 (cyno B7-H3),KD (M) huB7-H3 [1],KD (M) cynoB7-H3 (cyno B7-H3),% agg by SEC [2]
B1,540000 M⁻¹ s⁻¹,1.9e-05 s⁻¹,510000 M⁻¹ s⁻¹,1e-05 s⁻¹,–,–,–
B2,–,–,–,–,little observable binding,little observable binding,–
B3,12000 M⁻¹ s⁻¹,0.01 s⁻¹,28000 M⁻¹ s⁻¹,0.012 s⁻¹,–,–,–
B4,–,–,–,–,–,–,3.1%
